# Experimental data from the RNAGym collection of RNA variant scans (doi:10.1021/acssynbio.7b00057).
# B1: Pistol ribozyme (parent)
# chain: GGGUCGUUGUUCCAUAAUCGCGUGGAUAUGGCACGCAAGUUUCUACCGGGCACCGUAAAUGUCCGACUGGAGCCGUUCGGGCGGCUAUAAACAGACCUCAGGCCCGAAGCGUGGCGGCACCUGCCGCCGGUGGUAAAAAAGAUCGGAAGAGCACACGUCU
# Variants of: B1
# Assay: aptazyme ON/OFF ratio, guanine; higher = stronger switching; co-transcriptional cleavage with and without guanine
row,Variant,aptazyme ON/OFF ratio
1,GGGUCGACAAAGUAUAAUCGCGUGGAUAUGGCACGCAAGUUUCUACCGGGCACCGUAAAUGUCCGACUGGAGCCGUUCGGGCGGCUAUAAACAGACCUCAGGCCCGAAGCGUGGCGGCACCUGCCGCCGGUGGUAAAAAAGAUCGGAAGAGCACACGUCU [U7A U8C G9A U10A U11A C12G C13U],1.21
2,GGGUCGACAAAGAAUAAUCGCGUGGAUAUGGCACGCAAGUUUCUACCGGGCACCGUAAAUGUCCGACUGGAGCCGUUCGGGCGGCUAUAAACAGACCUCAGGCCCGAAGCGUGGCGGCACCUGCCGCCGGUGGUAAAAAAGAUCGGAAGAGCACACGUCU [U7A U8C G9A U10A U11A C12G C13A],1.11
3,GGGUCGACAAAGGAUAAUCGCGUGGAUAUGGCACGCAAGUUUCUACCGGGCACCGUAAAUGUCCGACUGGAGCCGUUCGGGCGGCUAUAAACAGACCUCAGGCCCGAAGCGUGGCGGCACCUGCCGCCGGUGGUAAAAAAGAUCGGAAGAGCACACGUCU [U7A U8C G9A U10A U11A C12G C13G],1.13
4,GGGUCGACAACGCAUAAUCGCGUGGAUAUGGCACGCAAGUUUCUACCGGGCACCGUAAAUGUCCGACUGGAGCCGUUCGGGCGGCUAUAAACAGACCUCAGGCCCGAAGCGUGGCGGCACCUGCCGCCGGUGGUAAAAAAGAUCGGAAGAGCACACGUCU [U7A U8C G9A U10A U11C C12G],1.21
5,GGGUCGACAACACAUAAUCGCGUGGAUAUGGCACGCAAGUUUCUACCGGGCACCGUAAAUGUCCGACUGGAGCCGUUCGGGCGGCUAUAAACAGACCUCAGGCCCGAAGCGUGGCGGCACCUGCCGCCGGUGGUAAAAAAGAUCGGAAGAGCACACGUCU [U7A U8C G9A U10A U11C C12A],1.15
6,GGGUCGACAAUUCAUAAUCGCGUGGAUAUGGCACGCAAGUUUCUACCGGGCACCGUAAAUGUCCGACUGGAGCCGUUCGGGCGGCUAUAAACAGACCUCAGGCCCGAAGCGUGGCGGCACCUGCCGCCGGUGGUAAAAAAGAUCGGAAGAGCACACGUCU [U7A U8C G9A U10A C12U],1.17
7,GGGUCGACAAUGCAUAAUCGCGUGGAUAUGGCACGCAAGUUUCUACCGGGCACCGUAAAUGUCCGACUGGAGCCGUUCGGGCGGCUAUAAACAGACCUCAGGCCCGAAGCGUGGCGGCACCUGCCGCCGGUGGUAAAAAAGAUCGGAAGAGCACACGUCU [U7A U8C G9A U10A C12G],1.24
8,GGGUCGACAACCCAUAAUCGCGUGGAUAUGGCACGCAAGUUUCUACCGGGCACCGUAAAUGUCCGACUGGAGCCGUUCGGGCGGCUAUAAACAGACCUCAGGCCCGAAGCGUGGCGGCACCUGCCGCCGGUGGUAAAAAAGAUCGGAAGAGCACACGUCU [U7A U8C G9A U10A U11C],1.07
9,GGGUCGACAAACCAUAAUCGCGUGGAUAUGGCACGCAAGUUUCUACCGGGCACCGUAAAUGUCCGACUGGAGCCGUUCGGGCGGCUAUAAACAGACCUCAGGCCCGAAGCGUGGCGGCACCUGCCGCCGGUGGUAAAAAAGAUCGGAAGAGCACACGUCU [U7A U8C G9A U10A U11A],1.19
10,GGGUCGACAAAAAAUAAUCGCGUGGAUAUGGCACGCAAGUUUCUACCGGGCACCGUAAAUGUCCGACUGGAGCCGUUCGGGCGGCUAUAAACAGACCUCAGGCCCGAAGCGUGGCGGCACCUGCCGCCGGUGGUAAAAAAGAUCGGAAGAGCACACGUCU [U7A U8C G9A U10A U11A C12A C13A],1.11
11,GGGUCGACAAAAUAUAAUCGCGUGGAUAUGGCACGCAAGUUUCUACCGGGCACCGUAAAUGUCCGACUGGAGCCGUUCGGGCGGCUAUAAACAGACCUCAGGCCCGAAGCGUGGCGGCACCUGCCGCCGGUGGUAAAAAAGAUCGGAAGAGCACACGUCU [U7A U8C G9A U10A U11A C12A C13U],1.25
12,GGGUCGACAAAAGAUAAUCGCGUGGAUAUGGCACGCAAGUUUCUACCGGGCACCGUAAAUGUCCGACUGGAGCCGUUCGGGCGGCUAUAAACAGACCUCAGGCCCGAAGCGUGGCGGCACCUGCCGCCGGUGGUAAAAAAGAUCGGAAGAGCACACGUCU [U7A U8C G9A U10A U11A C12A C13G],1.18
13,GGGUCGACAAACGAUAAUCGCGUGGAUAUGGCACGCAAGUUUCUACCGGGCACCGUAAAUGUCCGACUGGAGCCGUUCGGGCGGCUAUAAACAGACCUCAGGCCCGAAGCGUGGCGGCACCUGCCGCCGGUGGUAAAAAAGAUCGGAAGAGCACACGUCU [U7A U8C G9A U10A U11A C13G],1.12
14,GGGUCGACAAACUAUAAUCGCGUGGAUAUGGCACGCAAGUUUCUACCGGGCACCGUAAAUGUCCGACUGGAGCCGUUCGGGCGGCUAUAAACAGACCUCAGGCCCGAAGCGUGGCGGCACCUGCCGCCGGUGGUAAAAAAGAUCGGAAGAGCACACGUCU [U7A U8C G9A U10A U11A C13U],1.18
15,GGGUCGACAAACAAUAAUCGCGUGGAUAUGGCACGCAAGUUUCUACCGGGCACCGUAAAUGUCCGACUGGAGCCGUUCGGGCGGCUAUAAACAGACCUCAGGCCCGAAGCGUGGCGGCACCUGCCGCCGGUGGUAAAAAAGAUCGGAAGAGCACACGUCU [U7A U8C G9A U10A U11A C13A],1.35
16,GGGUCGACAAAUGAUAAUCGCGUGGAUAUGGCACGCAAGUUUCUACCGGGCACCGUAAAUGUCCGACUGGAGCCGUUCGGGCGGCUAUAAACAGACCUCAGGCCCGAAGCGUGGCGGCACCUGCCGCCGGUGGUAAAAAAGAUCGGAAGAGCACACGUCU [U7A U8C G9A U10A U11A C12U C13G],1.11
17,GGGUCGACAAAUAAUAAUCGCGUGGAUAUGGCACGCAAGUUUCUACCGGGCACCGUAAAUGUCCGACUGGAGCCGUUCGGGCGGCUAUAAACAGACCUCAGGCCCGAAGCGUGGCGGCACCUGCCGCCGGUGGUAAAAAAGAUCGGAAGAGCACACGUCU [U7A U8C G9A U10A U11A C12U C13A],1.13
18,GGGUCGACAAAUUAUAAUCGCGUGGAUAUGGCACGCAAGUUUCUACCGGGCACCGUAAAUGUCCGACUGGAGCCGUUCGGGCGGCUAUAAACAGACCUCAGGCCCGAAGCGUGGCGGCACCUGCCGCCGGUGGUAAAAAAGAUCGGAAGAGCACACGUCU [U7A U8C G9A U10A U11A C12U C13U],1.3
